Values quoted from earlier work in publication PMC6943629, “Binding of Gold(III) Porphyrin by the Pro-metastatic Regulatory Protein Human Galectin-3” (Molecules, 2019).
pKd: −log10 of the molar value.

Assays:
[1] = target: asialofetuin (Bos taurus) (UniProt P12763)
[2] = target: MUC18 (Homo sapiens) (UniProt P43121); test: bio-layer interferometry
Sequence of MUC18 (Homo sapiens) (P43121 24-646): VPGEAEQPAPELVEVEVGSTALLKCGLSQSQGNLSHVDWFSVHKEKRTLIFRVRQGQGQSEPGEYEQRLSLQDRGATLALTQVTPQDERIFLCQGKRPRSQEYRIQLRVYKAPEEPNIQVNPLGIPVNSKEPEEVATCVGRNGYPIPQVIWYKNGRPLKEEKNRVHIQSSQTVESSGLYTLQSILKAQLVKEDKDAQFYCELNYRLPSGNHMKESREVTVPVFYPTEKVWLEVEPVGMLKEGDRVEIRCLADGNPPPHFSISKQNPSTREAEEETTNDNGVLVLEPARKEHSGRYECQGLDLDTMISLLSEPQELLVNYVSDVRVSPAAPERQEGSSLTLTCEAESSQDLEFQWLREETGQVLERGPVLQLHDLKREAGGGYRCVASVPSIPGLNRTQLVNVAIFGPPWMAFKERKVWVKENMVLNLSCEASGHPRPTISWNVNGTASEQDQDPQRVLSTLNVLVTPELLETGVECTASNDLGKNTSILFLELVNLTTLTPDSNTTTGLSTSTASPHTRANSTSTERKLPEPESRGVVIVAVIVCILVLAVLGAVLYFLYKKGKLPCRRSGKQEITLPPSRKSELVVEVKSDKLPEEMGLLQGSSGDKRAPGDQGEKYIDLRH

Sequence of galectin-3 (P17931 2-250): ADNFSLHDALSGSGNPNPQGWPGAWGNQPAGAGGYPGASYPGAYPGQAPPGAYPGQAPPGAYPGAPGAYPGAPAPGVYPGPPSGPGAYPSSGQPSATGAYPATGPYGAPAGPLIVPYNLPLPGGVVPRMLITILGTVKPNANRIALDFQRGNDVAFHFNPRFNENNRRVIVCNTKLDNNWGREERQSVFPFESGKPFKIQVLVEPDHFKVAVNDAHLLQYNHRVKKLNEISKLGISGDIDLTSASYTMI
Sequence of asialofetuin (Bos taurus) (P12763 19-359): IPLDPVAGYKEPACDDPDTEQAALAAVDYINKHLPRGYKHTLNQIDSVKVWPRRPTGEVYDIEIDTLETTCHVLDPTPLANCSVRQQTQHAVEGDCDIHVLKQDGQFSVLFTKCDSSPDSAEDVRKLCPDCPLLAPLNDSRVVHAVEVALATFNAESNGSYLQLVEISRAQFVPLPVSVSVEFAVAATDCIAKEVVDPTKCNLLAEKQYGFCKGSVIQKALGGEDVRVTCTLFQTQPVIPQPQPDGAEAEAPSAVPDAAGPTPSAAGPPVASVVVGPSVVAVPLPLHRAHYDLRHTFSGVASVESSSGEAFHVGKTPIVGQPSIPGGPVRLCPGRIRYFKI

pKd [1]: 6.14 | pKd [2]: 6.37
Substance: galectin-3 (from UniProt P17931)
